T1: Trypanosoma brucei deoxyhypusine synthase, catalytic paralog (TbDHSc), His-SUMO tag removed (T. brucei, UniProt Q38BX0 1-461)
T1 sequence: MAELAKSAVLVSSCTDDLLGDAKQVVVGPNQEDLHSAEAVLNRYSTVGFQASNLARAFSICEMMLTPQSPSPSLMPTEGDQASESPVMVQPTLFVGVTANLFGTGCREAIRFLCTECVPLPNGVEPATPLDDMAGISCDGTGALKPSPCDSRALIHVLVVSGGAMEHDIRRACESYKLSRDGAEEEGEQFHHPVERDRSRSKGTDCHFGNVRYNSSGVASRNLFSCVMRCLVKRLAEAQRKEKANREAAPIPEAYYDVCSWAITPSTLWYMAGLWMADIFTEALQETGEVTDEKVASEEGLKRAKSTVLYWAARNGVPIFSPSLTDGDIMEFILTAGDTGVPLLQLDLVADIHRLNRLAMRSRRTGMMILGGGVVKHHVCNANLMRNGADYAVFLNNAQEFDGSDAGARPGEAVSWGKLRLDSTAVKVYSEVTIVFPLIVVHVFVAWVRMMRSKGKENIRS


Assays:
[1] = substrate: NC(=O)c1ccc[n+]([C@@H]2O[C@H](COP(=O)(O)OP(=O)(O)OC[C@H]3O[C@@H](n4cnc5c(N)ncnc54)[C@H](O)[C@@H]3O)[C@@H](O)[C@H]2O)c1; assay: purified protein; type: biochemical, Trypanosoma brucei; conditions: 78 μM [14C]spermidine, 15 μM TbeIF5A, 5 nM DHS; varied: cofactor
[2] = substrate: NCCCCNCCCN; assay: purified protein; type: biochemical, Trypanosoma brucei; conditions: 1 mM NAD+, 15 μM TbeIF5A, 5 nM DHS; labelled compound
[3] = biological target: T1, Trypanosoma brucei deoxyhypusine …; assay: crystal structure

Row | Binder | Km [1] [µM] | kcat [1] [s⁻¹] | Km [2] [µM] | kcat [2] [s⁻¹] | binding result [3]
1 | TbDHSc:DHSp (Trypanosoma brucei brucei TREU927) (protein) chain 1: MAELAKSAVLVSSCTDDLLGDAKQVVVGPNQEDLHSAEAVLNRYSTVGFQASNLARAFSICEMMLTPQSPSPSLMPTEGDQASESPVMVQPTLFVGVTANLFGTGCREAIRFLCTECVPLPNGVEPATPLDDMAGISCDGTGALKPSPCDSRALIHVLVVSGGAMEHDIRRACESYKLSRDGAEEEGEQFHHPVERDRSRSKGTDCHFGNVRYNSSGVASRNLFSCVMRCLVKRLAEAQRKEKANREAAPIPEAYYDVCSWAITPSTLWYMAGLWMADIFTEALQETGEVTDEKVASEEGLKRAKSTVLYWAARNGVPIFSPSLTDGDIMEFILTAGDTGVPLLQLDLVADIHRLNRLAMRSRRTGMMILGGGVVKHHVCNANLMRNGADYAVFLNNAQEFDGSDAGARPGEAVSWGKLRLDSTAVKVYSEVTIVFPLIVVHVFVAWVRMMRSKGKENIRS chain 2: MSGVPFPSRVIGDLDYSNLLNIGQEEAIRCVLNAYPNIGLEATNLGRARRIVQRALNDNGMDGNKVMLAYTSNLISSGLRDTFACLARENRIGAVVTTAGGVEEDVIKCLGDTLVGDFALNDHALRNNGLNRVGNLLVPNDNYRNFEDFFVPLLRRLHEQQRDSRWTTKTTPSQIIAEIGAALESVRPNDCGSSLIYWCYRNDIPVFSPAFTDGSMGDMIYFYNYSRKGLVVDPVPDVRRLRQLGCKSTNVGRITCIVLGAGLPKHHLLRNVQADAVVYVTTGSDADGCESSCNVMADRANGLLSPNCDVVRVHGDATIISPLLLLRSSDGKEKVGVREDGN | 1.3 ± 0.18 | 0.15 ± 0.0045 | 9.8 ± 1.2 | 0.18 ± 0.01 | 
2 | Trypanosoma brucei deoxyhypusine synthase prozyme paralog (TbDHSp), untagged (natural protein, T. brucei, UniProt Q4GZD1 1-342, looked up) MSGVPFPSRVIGDLDYSNLLNIGQEEAIRCVLNAYPNIGLEATNLGRARRIVQRALNDNGMDGNKVMLAYTSNLISSGLRDTFACLARENRIGAVVTTAGGVEEDVIKCLGDTLVGDFALNDHALRNNGLNRVGNLLVPNDNYRNFEDFFVPLLRRLHEQQRDSRWTTKTTPSQIIAEIGAALESVRPNDCGSSLIYWCYRNDIPVFSPAFTDGSMGDMIYFYNYSRKGLVVDPVPDVRRLRQLGCKSTNVGRITCIVLGAGLPKHHLLRNVQADAVVYVTTGSDADGCESSCNVMADRANGLLSPNCDVVRVHGDATIISPLLLLRSSDGKEKVGVREDGN |  |  |  |  | binds

Reference: PMC6221947 (Structure (London, England : 1993), 2018)
